Biological target: the molecule itself
Experiment: cryo-EM structure

B1: major pilin PilA of Myxococcus xanthus (MXAN_5783), mature, as the subunit of the type IV pilus (natural protein, UniProt Q59589 13-220, looked up)
chain: FTLIELMIVVAIIGILAAIAIPNFIKFQARSKQSEAKTNLKALYTAQKSFFSEKDRYSDFANEIGFAPERGNRYGYRVSAAAGDCEVRNAADLPVPAAGVPCISNDSFRFGANSAIDDPTPVVARFVPQGAAGWNTTLGVQPTIADCPNCNFFAGARGNADNEATFDDWVIAGFEGSGQVGPCSEAGNVASGTPYNTRNDVACDGAAQ
Does B1 bind?
Result: binds
